For this assay, the target named is T1, linear peptide SLDKHKHKKLQSFYP (SEQ ID NO:9) from HERV-K-Env (human endogenous retrovirus type K …).
T1 construct: 15-mer synthesized on a solid support in the Pepscan peptide array; It corresponds to the 298-312 region of the HERV-K-Env protein described by Dewannieux et al 2005
T1 peptide: SLDKHKHKKLQSFYP
Briefly: Pepscan peptide array ELISA, antibody at 1 µg/ml. In general terms: ELISA stands for enzyme-linked immunosorbent assay.

B1: GN_mAb_Env_K01 (antibody, V domains shown)
VH: QVQLQQPGAELVRPGASVKLSCKASGYTFTSYWMNWVKQRPEQGLEWIGRIDPYDSETHYNQKFKDKAILTVDKSSSTAYMQLSSLTSEDSAVYYCASLYYYGISLWGQGTLVTVS
VL: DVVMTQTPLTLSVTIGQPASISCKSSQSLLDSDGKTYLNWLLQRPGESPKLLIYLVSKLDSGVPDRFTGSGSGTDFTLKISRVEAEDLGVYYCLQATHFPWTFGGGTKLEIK
notes: also called GN K01; GN K01 Ig
With B1, the binding result was “binds”.

(Values after patent US20190345232A1 (GENEURO, published 2019).)
